{
  "source": "patent US8722622B2",
  "about": "“FGF21 conjugates and anti-diabetic uses thereof” (COVX Technologies Ireland, Limited, priority 2010, dated 2014)",
  "key": {"[1]": {"system": "Differentiated 3T3-L1 adipocytes", "experiment": "Glucose uptake assay", "format": "cell-based", "settings": "unconjugated protein; n in brackets", "description": "Differentiated 3T3-L1 adipocytes were treated with compounds in the absence of serum for 24 hrs. Cells were then incubated with ^14C-2-deoxyglucose for 1 hr and glucose uptake into the cells was quantitated in Wallac 1450 MicroBeta (Trilux) instrument. Glucose uptake was expressed in counts per min (CPM). EC50 values as measurements of the potency of the compounds were obtained from the dose response curves in the assay."}, "[2]": {"system": "obese insulin resistant (pre-diabetic) cynomolgus macaques", "format": "in vivo, Macaca fascicularis", "settings": "0.3 mg/kg QD", "description": "[…] adult cynomolgus monkeys (Macaca fascicularis) were included in the study. The monkeys (13 male, 11 female) were stratified into four treatment groups of 6 individuals, based on sex, body weight, and basal glycemic and lipid indices measured in a baseline plasma sample collected 2 weeks prior to the start of dosing. Animals were maintained on a high fat diet. Animals were dosed for 4 weeks followed by a 4 week washout period.\nBlood samples were collected weekly during the dosing and washout periods, with the exception that no samples were collected at week 3 of washout. After an overnight fast (16-18 h), monkeys were sedated with ketamine 10-15 mg/kg by intramuscular (IM) injection. Body weights were recorded and blood (5 mL) was collected via percutaneous femoral venipuncture into ethylenediaminetetraacetic acid (EDTA) treated Vacutainer tubes pretreated with ˜1.8 trypsin inhibitor units (TIU) Aprotinin (Sigma 0.6 TIU per mL whole blood). Tubes were immediately placed on ice. Plasma was prepared by centrifugation, with the resulting plasma aliquoted and frozen at −80° C.\nData were treated in the same way for each pharmacodynamic endpoint. The baseline value for each individual monkey was subtracted from each timepoint to give a value corresponding to change from baseline. Changes from baseline values were averaged for each timepoint in each treatment group and standard error of the mean (SEM) calculated. Results are reported as mean change from baseline±SEM for each treatment group over the timecourse of the study. […] As there was no vehicle control group for the FGF21ΔH treated animals, the raw data and not the change from baseline value was used to assess statistical significance. In this case a student's T-test (two sided, paired sample) was carried out vs. baseline. […]\nPlasma fructosamine was measured via an enzymatic colorimetric method using the Ace Alera Clinical Chemistry Analyzer using a kit from Roche Diagnostics®(Mannheim, Germany) according to manufacturer's instructions. […] Significant reduction in plasma fructosamine levels over time indicates improved glycemic control. […]\nTPC levels were measured using enzymatic methods on the Ace Alera analyzer. There was a significant decrease in TPC after 1 week of treatment in all treatment groups (FIG. 9H).\nTG levels were measured using enzymatic methods on the Ace Alera analyzer.\nNon-esterified free fatty acids (FFA) were measured using enzymatic methods on a Roche Cobas® C311 clinical chemistry analyzer using protocols and reagents from Wako® (Wako Diagnostics, Richmond, Va.) according to manufacturer's instructions.\nHDL levels were measured using enzymatic methods on the Ace Alera analyzer. There was no significant change in HDL cholesterol over the treatment period in any of the treatment groups.\nLDL levels were measured using enzymatic methods on the Ace Alera analyzer.\nTOTK were measured using enzymatic methods on a Roche Cobas® C311 clinical chemistry analyzer using protocols and reagents from Wako®.\nAdiponectin levels were determined using a Mercodia® ELISA kit.\nC-reactive protein (CRP) was measured using an ELISA kit from ALPCO Diagnostics® (Salem, N.H.) according to manufacturer's instructions. […] Levels trended back to baseline during the washout phase.\nLeptin was measured by Luminex® technology (Millipore® catalogue number HMH-34K) with protocols and reagents according to manufacturer's instructions.\nAdipsin levels were measured using and R&D Systems® (Minneapolis Minn.) human complement factor D Quantikine kit (catalogue number DFD00) according to manufacturer's instructions. […] The levels trended back towards baseline during the washout phase."}},
  "data": [
    {"molecule": "FGF21ΔH: FGF21 with H1 absent (ΔH1), L146, SEQ ID NO:2; control protein (protein, listed as Homo sapiens) PIPDSSPLLQFGGQVRQRYLYTDDAQQTEAHLEIREDGTVGGAADQSPESLLQLKALKPGVIQILGVKTSRFLCQRPDGALYGSLHFDPEACSFRELLLEDGYNVYQSEAHGLPLHLPGNKSPHRDPAPRGPARFLPLPGLPPAPLEPPGILAPQPPDVGSSDPLSMVGPSQGRSPSYAS", "values": [
      {"measurement": "EC50", "setting": "[1]", "value": 12, "unit": "nM"},
      {"measurement": "LDL cholesterol", "setting": "[2]", "value": "significant decrease in LDL cholesterol levels was only observed after 1 week of treatment"},
      {"measurement": "non-esterified free fatty acids (FFA)", "setting": "[2]", "value": "significantly increased over the first 2 weeks of treatment"},
      {"measurement": "plasma adiponectin", "setting": "[2]", "value": "trended upwards"},
      {"measurement": "body weight", "setting": "[2]; 4 weeks, vs baseline", "value": "significant decrease in body weight"},
      {"measurement": "plasma fructosamine", "setting": "[2]; after 3 weeks", "value": "significantly reduced"},
      {"measurement": "triglycerides (TG)", "setting": "[2]; dosing period", "value": "significant decrease in TG"},
      {"measurement": "total ketone bodies (TOTK)", "setting": "[2]; first 3 weeks of treatment", "value": "significantly increased"},
      {"measurement": "plasma leptin", "setting": "[2]; not significant", "value": "decreased"},
      {"measurement": "plasma C-reactive protein (CRP)", "setting": "[2]; significance only at 1 week washout", "value": "decreased"}
    ]}
  ]
}
